Test results: publication PMC3553952 (Nucleic Acids Research, 2012)

Columns and labels:
[1] = biological target: T1, Pab-aCPSF1 (Pyrococcus abyssi, UniProt Q9V0P0 1-648); test: EMSA
T1 sequence: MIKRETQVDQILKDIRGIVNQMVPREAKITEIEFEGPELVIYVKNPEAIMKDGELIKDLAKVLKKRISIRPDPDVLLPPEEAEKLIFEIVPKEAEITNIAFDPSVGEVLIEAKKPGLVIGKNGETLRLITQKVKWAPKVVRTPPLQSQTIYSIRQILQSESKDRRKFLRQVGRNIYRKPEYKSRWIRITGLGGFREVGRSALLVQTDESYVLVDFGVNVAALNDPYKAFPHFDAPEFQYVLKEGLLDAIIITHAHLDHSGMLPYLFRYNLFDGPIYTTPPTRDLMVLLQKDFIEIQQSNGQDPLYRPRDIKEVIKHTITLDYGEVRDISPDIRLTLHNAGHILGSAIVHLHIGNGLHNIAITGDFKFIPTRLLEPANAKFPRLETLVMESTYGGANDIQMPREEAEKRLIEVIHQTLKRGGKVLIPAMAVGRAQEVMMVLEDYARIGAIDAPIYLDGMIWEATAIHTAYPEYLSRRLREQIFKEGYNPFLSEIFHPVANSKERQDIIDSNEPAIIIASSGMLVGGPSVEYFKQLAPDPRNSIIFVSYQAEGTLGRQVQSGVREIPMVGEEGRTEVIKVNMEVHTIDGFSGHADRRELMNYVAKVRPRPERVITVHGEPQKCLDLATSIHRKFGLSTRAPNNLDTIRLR

[2] = biological target: the molecule itself; test: SEC

B1: sR47MutCG (structured_RNA)
RNA: GAUGAAGAUGAUGAGCUCGGCAGGUCCUGAGGAGUGAUGAGGAUCUGCUGAGUGCUGAUUCACCUU
Does B1 bind [1]?
Result: binds

B2: Pab-aCPSF1ΔKH (variant missing the first 179 residues of Pab-aCPSF1) (domain or fragment, Pyrococcus abyssi, UniProt Q9V0P0 180-648, looked up)
chain: EYKSRWIRITGLGGFREVGRSALLVQTDESYVLVDFGVNVAALNDPYKAFPHFDAPEFQYVLKEGLLDAIIITHAHLDHSGMLPYLFRYNLFDGPIYTTPPTRDLMVLLQKDFIEIQQSNGQDPLYRPRDIKEVIKHTITLDYGEVRDISPDIRLTLHNAGHILGSAIVHLHIGNGLHNIAITGDFKFIPTRLLEPANAKFPRLETLVMESTYGGANDIQMPREEAEKRLIEVIHQTLKRGGKVLIPAMAVGRAQEVMMVLEDYARIGAIDAPIYLDGMIWEATAIHTAYPEYLSRRLREQIFKEGYNPFLSEIFHPVANSKERQDIIDSNEPAIIIASSGMLVGGPSVEYFKQLAPDPRNSIIFVSYQAEGTLGRQVQSGVREIPMVGEEGRTEVIKVNMEVHTIDGFSGHADRRELMNYVAKVRPRPERVITVHGEPQKCLDLATSIHRKFGLSTRAPNNLDTIRLR
Which “stoichiometry N” value [2] does the source give for B2 here?
The value was 2.

B3: sR47Mut21U (structured_RNA)
RNA: GAUGAAGAUGAUGAGCUCGGUAGGUCCUGAGGAGUGAUGAGGAUCUUGAGUGCUGAUUCACCUU
Does B3 bind [1]?
Result: binds
